Measured values from article PMC9954413.

Experiments:
UbcH5B (Homo sapiens) = UbcH5B (Homo sapiens) (UniProt P62837); test: ITC; settings: cited from earlier work
[1] = target: Arkadia (RNF111) LONG, residues 876-994 (Ark LONG, 119 aa) (human) (UniProt Q6ZNA4)
[2] = target: Arkadia LONG R983A (human) (UniProt Q6ZNA4); test: ITC; 1-3 mM E2 in the syringe injected (2 uL, 15-19 injections) into 100-300 uM Arkadia polypeptide in the cell; 25 °C; 50 mM KH2PO4, 50 mM K2HPO4 pH 7; single-site model
[3] = target: Arkadia LONG R983K (human) (UniProt Q6ZNA4); test: as above
Chain of Arkadia LONG R983K (human) (Q6ZNA4 876-994 R983K): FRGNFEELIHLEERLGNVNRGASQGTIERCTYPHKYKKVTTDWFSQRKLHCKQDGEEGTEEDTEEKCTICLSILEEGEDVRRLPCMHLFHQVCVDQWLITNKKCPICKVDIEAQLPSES

[4] = target: Arkadia (RNF111) LONG, residues 876-994 (Ark LONG, 119 aa) (human) (UniProt Q6ZNA4); test: as above

Chain of UbcH5B (UBE2D2) (P62837 whole entry): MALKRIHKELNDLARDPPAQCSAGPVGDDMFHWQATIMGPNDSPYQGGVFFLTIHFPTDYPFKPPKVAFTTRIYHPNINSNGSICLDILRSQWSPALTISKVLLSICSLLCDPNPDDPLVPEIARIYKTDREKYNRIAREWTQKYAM
Chain of Arkadia (RNF111) LONG, residues 876-994 (Ark LONG, 119 aa) (human) (Q6ZNA4 876-994): as the sequence (Q6ZNA4 876-994 R983K) above, with K108R counted along it
Chain of Arkadia LONG R983A (human) (Q6ZNA4 876-994 R983A): as the sequence (Q6ZNA4 876-994 R983K) above, with K108A counted along it
Chain of Arkadia RING RING (Q6ZNA4 939-986): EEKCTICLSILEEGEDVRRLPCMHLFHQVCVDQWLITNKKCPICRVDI
Chain of UbcH5B (Homo sapiens) (P62837 whole entry, the tested form may be a part): as the sequence (P62837 whole entry) above

in vitro auto-ubiquitylation of Ark LONG: time until polyubiquitylation is achieved [1] [min] | dH [2] [kcal/mol] | stoichiometry N [2] | dH [3] [kcal/mol] | stoichiometry N [3] | dH [4] [kcal/mol] | stoichiometry N [4] | Substance | Kd (UbcH5B (Homo sapiens)) [µM]
 |  |  |  |  |  |  | Arkadia RING RING (from UniProt Q6ZNA4) | 32
5 | -5.8 | 0.7 | -3.6 | 0.5 | -4.7 | 0.6 | UbcH5B (UBE2D2) (from UniProt P62837 1-147) (enzyme) | 
